Interaction score data for three molecules are collected here from publication PMC10397247.

What all share (test): two-hybrid library CCNG1;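 further: natural log of median RNA to DNA barcode read ratio; higher means stronger binding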
Assay [1] addresses T1, P7A.
T1 chain: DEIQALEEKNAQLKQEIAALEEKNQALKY

For assay [2], the target named is T2, P9A.
T2 chain: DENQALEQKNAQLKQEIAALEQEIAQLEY

For assay [3], the target named is T3, P8A.
T3 chain: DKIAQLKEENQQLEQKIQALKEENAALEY

Assay [4] concerns the target T4, 4H3613-bH.
T4 chain: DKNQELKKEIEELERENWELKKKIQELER

The target in assay [5] is T5, 4H3628-bH.
T5 chain: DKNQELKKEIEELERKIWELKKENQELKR

For assay [6], the target named is T6, 4H906-bH.
T6 chain: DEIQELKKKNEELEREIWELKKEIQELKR

Assay [7] deals with T7, 4H3462-bH.
T7 chain: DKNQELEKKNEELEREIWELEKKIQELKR

Assay [8] deals with T8, 4H3497-bH.
T8 chain: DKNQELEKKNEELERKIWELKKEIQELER

In assay [9] the target is T9, O2-bN.
T9 chain: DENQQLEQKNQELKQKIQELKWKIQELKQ

For assay [10], the target named is T10, 4H591-bH.
T10 chain: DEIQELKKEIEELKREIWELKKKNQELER

Assay [11] has as its target T11, 4H3926-bH.
T11 chain: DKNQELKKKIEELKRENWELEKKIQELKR

Assay [12] concerns the target T12, 4H626-bH.
T12 chain: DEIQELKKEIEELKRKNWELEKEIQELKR

Assay [13] has as its target T13, 4H850-bN.
T13 chain: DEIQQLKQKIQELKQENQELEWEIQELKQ

The target of assay [14] is T14, 4H619-bN.
T14 chain: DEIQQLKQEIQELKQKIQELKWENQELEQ

In assay [15] the target is T15, 4H584-bN.
T15 chain: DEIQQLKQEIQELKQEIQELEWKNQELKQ

The target in assay [16] is T16, 4H570-bN.
T16 chain: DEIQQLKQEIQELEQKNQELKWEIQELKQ

For assay [17], the target named is T17, 4H906-bN.
T17 chain: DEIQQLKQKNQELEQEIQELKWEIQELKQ

As to DEIQALEEKNAQLKQEIAALEEKNQALKY [P7A], the interaction score in assay [1] is -0.598; in assay [2] it was -0.697; in [3] it was 2.24.

As to DKNQELEKKNEELEREIWELEKKIQELKR [4H3462-bH], the interaction score in [4] is -0.585; in assay [5], 0.726; in [6], 0.0503; in assay [7] it was 0.634; in assay [8], 1.43; in assay [9] it was 1.13. Further, the interaction score is -0.285 in assay [10], 0.869 in [11] and -0.748 in assay [12].

As to DEIQQLKQEIQELEQKNQELKWEIQELKQ [4H570-bN], the interaction score in [13] was 1.82; in assay [1], -1.87; in [14], -1.3; in assay [15], 0.131; in assay [16], 0.618; in assay [17] it was -1.16.
